Ends that are not written are not given here.
Molecular target: T1, TNKS2 ARC4 fused with mCerulean (CFP) (human, UniProt Q9H2K2 488-649)
T1 construct: Tankyrase 2 (TNKS2), human, ankyrin repeat cluster 4 (ARC4); residues 487-649 are stated only for the crystallised TNKS2 ARC4; Vector pNIC-CFP: mCerulean inserted between the 6xHis-tag and the TEV site of pNIC28-Bsa4; the label reads CFP first, so the tags are probably N-terminal; also called CFP-TNKS2 ARC4; source: E. coli BL21(DE3), purified (IMAC, SEC)
T1 sequence: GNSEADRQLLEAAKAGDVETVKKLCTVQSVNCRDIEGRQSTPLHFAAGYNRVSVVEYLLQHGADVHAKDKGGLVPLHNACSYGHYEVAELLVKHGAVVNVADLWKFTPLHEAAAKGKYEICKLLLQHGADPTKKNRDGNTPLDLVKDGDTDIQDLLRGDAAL
Assay: FRET or BRET; ratiometric FRET in solution: CFP-TNKS1/2 ARC 100 nM and YFP-REAGDGEE 200 nM, 10 mM Bis-Tris Propane pH 7, 3% PEG 20000, 0.01% Triton X-100, 0.5 mM TCEP; small-molecule compounds added (screen at 30 uM, dose response); 1 M guanidine hydrochloride as control of total inhibition
Settings: both partners purified

- binding result: binds
B1: 8-residues peptide optimized for the binding of ARCs (REAGDGEE) fused with mCitrine (YFP) (peptide)
chain: REAGDGEE
modifications: also: fused with mCitrine (YFP)
notes: Vector pNIC-YFP: mCitrine inserted between the 6xHis-tag and the TEV site of pNIC28-Bsa4; the label reads YFP first, so the peptide probably stands at the C-terminal end of the fusion; also called optimized peptide; source: E. coli BL21(DE3), purified (IMAC, SEC)

— publication doi:10.1101/2025.03.31.646301, “Discovery of Tankyrase scaffolding inhibitor specifically targeting the ARC4 peptide binding domain” (bioRxiv, 2025)
